Assay [1] deals with T1, HMHA1 (Rho GTPase-activating protein 45), minor histocompatibility antigen HA-1H, R139H polymorphism peptide … (human).
T1 peptide: VLHDDLLEA
Nature of the assay: multimer staining.

Assay [2] addresses T2, HMHA1, wild type (HA-1R; HA-1H-negative, rs1801284 G/G) peptide on HLA-A*02:01 (human).
T2 peptide: VLRDDLLEA
The assay can be described thus: killing.

B1: TCR5 (TCR, V domains shown)
Valpha: SQQGEEDPQALSIQEGENATMNCSYKTSINNLQWYRQNSGRGLVHLILIRSNEREKHSGRLRVTLDTSKKSSSLLITASRAADTASYFCATNSGNTPLVFGKGTRLSVIA
Vbeta: DTGVSQDPRHKITKRGQNVTFRCDPISEHNRLYWYRQTLGQGPEFLTYFQNEAQLEKSRLLSDRFSAERPKGSFSTLEIQRTEQGDSAMYLCASSLTTLDEQYVGPGTRLTVT
For the molecule B1, the binding result is given as “recognises” in assay [1] and “no recognition” in assay [2].

B2: TCR10 (TCR, V domains shown)
Valpha: KNQVEQSPQSLIILEGKNCTLQCNYTVSPFSNLRWYKQDTGRGPVSLTIMTFSENTKSNGRYTATLDADTKQSSLHITASQLSDSASYICVVDSGGGADGLTFGKGTHLIIQP
Vbeta: DTGVSQDPRHKITKRGQNVTFRCDPISEHNRLYWYRQTLGQGPEFLTYFQNEAQLEKSRLLSDRFSAERPKGSFSTLEIQRTEQGDSAMYLCASSMLTNYEQYFGPGTRLTVT
For the molecule B2, the binding result is “recognises” in assay [1] and “no recognition” in assay [2].

B3: TCR1 (TCR, V domains shown)
Valpha: SQQGEEDPQALSIQEGENATMNCSYKTSINNLQWYRQNSGRGLVHLILIRSNEREKHSGRLRVTLDTSKKSSSLLITASRAADTASYFCATKRDSGAGSYQLTFGKGTKLSVIP
Vbeta: DTGVSQDPRHKITKRGQNVTFRCDPISEHNRLYWYRQTLGQGPEFLTYFQNEAQLEKSRLLSDRFSAERPKGSFSTLEIQRTEQGDSAMYLCASSSTGGHNEQFFGPGTRLTVL
As for B3, the binding result in assay [1] is given as “recognises”; in assay [2] it was “no recognition”.

B4: TCR2 (TCR, V domains shown)
Valpha: KQEVTQIPAALSVPEGENLVLNCSFTDSAIYNLQWFRQDPGKGLTSLLLIQSSQREQTSGRLNASLDKSSGRSTLYIAASQPGDSATYLCAVIGLGGTYKYIFGTGTRLKVLA
Vbeta: DTGVSQDPRHKITKRGQNVTFRCDPISEHNRLYWYRQTLGQGPEFLTYFQNEAQLEKSRLLSDRFSAERPKGSFSTLEIQRTEQGDSAMYLCASSLVKGEKLFFGSGTQLSVL
As to B4, the binding result is listed as “recognises” in assay [1] and “no recognition” in assay [2].

B5: TCR16 (TCR, V domains shown)
Valpha: KQEVTQIPAALSVPEGENLVLNCSFTDSAIYNLQWFRQDPGKGLTSLLLIQSSQREQTSGRLNASLDKSSGRSTLYIAASQPGDSATYLCAVHLLNDYKLSFGAGTTVTVRA
Vbeta: DTGVSQDPRHKITKRGQNVTFRCDPISEHNRLYWYRQTLGQGPEFLTYFQNEAQLEKSRLLSDRFSAERPKGSFSTLEIQRTEQGDSAMYLCASSLVVGNEQFFGPGTRLTVL
Consider B5, for which the binding result in assay [1] was “recognises”; in assay [2] it was “no recognition”.

These data come from patent publication US20240279307A1 (published 2024).
